Laboratory results: patent JP2010235447A (dated 2010)

biological target: T1, CD36 (CD36発現細胞; pcDNA-CD36を一過性に導入した293T細胞) (human, UniProt P16671 2-472); assay: flow cytometry of hybridoma supernatants on CD36-expressing cells
T1 construct: whole, on cells; also called ヒトCD36; CD36発現株
T1 sequence (P16671 2-472): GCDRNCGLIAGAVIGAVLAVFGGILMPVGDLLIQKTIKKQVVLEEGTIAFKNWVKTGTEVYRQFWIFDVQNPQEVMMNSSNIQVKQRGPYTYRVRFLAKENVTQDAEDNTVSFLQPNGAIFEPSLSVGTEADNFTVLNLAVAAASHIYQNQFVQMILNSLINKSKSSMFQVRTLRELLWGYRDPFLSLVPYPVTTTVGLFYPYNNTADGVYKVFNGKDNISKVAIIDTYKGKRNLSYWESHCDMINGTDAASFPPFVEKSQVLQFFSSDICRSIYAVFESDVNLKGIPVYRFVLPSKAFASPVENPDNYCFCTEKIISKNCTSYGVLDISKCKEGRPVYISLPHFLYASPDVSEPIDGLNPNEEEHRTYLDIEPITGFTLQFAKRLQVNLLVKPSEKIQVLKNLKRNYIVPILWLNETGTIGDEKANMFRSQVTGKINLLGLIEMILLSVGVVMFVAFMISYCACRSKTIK

| Binder | binding result |
| --- | --- |
| マウス抗ヒトCD36モノクローナル抗体 クローン1-3 (antibody, mouse IgG2b, V domains shown, also called クローン1−3; 抗CD36抗体) VH: QAQLQQSGAELVRPGASVTLSCKASGYTFTDYEMNWVKQTPVHGLEWIGAIDPEIGGSAYNQKFKGKATLTADKSSSTAYMELRSLTSEDSAVYYCTRSKLPAWFPYWGQGTLVTVSA VL: EIKMTQSPSAMYASLGERVTITCKASQDINSYLSWFQQKPGKSPKTLIYRANRLVDGVPSRFSGSGSGQDYSLTISSLEFEDMGIYYCLQYEEFPYTFGGGTKLEIK | binds |
| マウス抗ヒトCD36モノクローナル抗体 クローン1-36 (antibody, mouse IgG2b, V domains shown, also called クローン1−36; 抗CD36抗体) VH: QVQLQQSGAELVRPGASVKLSCKALNYTFTDYEMHWVKQTPVHGLEWIGGIHPGSGGTAYNQRFKGKATLTADKSSSTAYIEVSSLTSEDSAVYYCSLTTASAWFAYWGQGTLVTVSV VL: DIKMTQSPSSMYASLGERVTITCKASQDINSYLSWFQQKPGKSPKTLIYRANRLLDGVPSRFSGSGSGQDYSLTISSLEYEDMGIYYCLQYDEFPLTFGAGTKLELK | binds |
| マウス抗ヒトCD36モノクローナル抗体 クローン2-66 (antibody, mouse IgG1, V domains shown, also called クローン2−66; 抗CD36抗体) VH: QVQLQQPGAELVKPGASVRMSCKASGYTFTNYNMHWVKQTPGQGLEWIGVIYPGNGDTSYSQKFKGKATLTADKSSRTGYMQLSSLTSEDSAVYYCTRSGWDDWFFDVWGAGTSVTVSS VL: DVLMTQTPLSLPVSLGDQASISCRSSQSIVQRNGITYLEWYQQKTGQSPKLLIYKVSNRFSGVPDRFSGSGSGTDFTLKISRVEAEDLGVYYCFQGSHVPPTFGGGTKLEIK | binds |
| マウス抗ヒトCD36モノクローナル抗体 クローン4-62 (antibody, mouse IgG2a, V domains shown, also called クローン4−62; 抗CD36抗体) VH: QIHLVQSGPELKKPGETVKISCKASGYTFTNYGMNWVMQAPGKVLKWMGWINTYTGETTYADDFKGRFAFSLETSASTAYLQINSLKYEDTASYFCARDDGYSFYYDMDYWGQGTSVTVSS VL: DVLMTQTPLSLPVSLGDQASISCRSSQSIVHTNGNTYLQWYLQKPGQSPKLLIYKVSNRFSGVPDRFSGSGSGTDFTLKISTVEAEDLGVYYCFQGSHVPWTFGGGTKLEIK | binds |
